Laboratory results: US5792640

Legend:
[1] = test system: ZF-QQR (synthetic construct); test: EMSA; settings: CITED ref 34; exact hybrid used in cited work not given; cited from earlier work
[2] = test system: ZF-QQR-FN (consensus zinc fingers-FokI cleavage domain fusion) (synthetic construct); test: EMSA; settings: apparent Kd
[3] = test system: ZF-QQR-FN (consensus zinc fingers-FokI cleavage domain fusion) (synthetic construct); test: cleavage_in_vitro; settings: DNA strand cleaved, ~100-fold slower than duplex; RNA strand not cleaved
[4] = biological target: ZF-Sp1C (synthetic construct) (UniProt P08047); test: EMSA; settings: CITED ref 34; DNA-RNA hybrid; cited from earlier work
Chain of ZF-Sp1C (synthetic construct) (P08047 626-708): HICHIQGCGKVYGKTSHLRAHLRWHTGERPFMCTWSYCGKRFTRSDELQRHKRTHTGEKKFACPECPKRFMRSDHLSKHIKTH

In the case of “GAGCTCCTTTGGATCCAAGCTTCCCGGGGAAGAATTCGAGGAGGCTCTCGAGGTCGACTTCCTCTAGAGGTACC / GGUACCUCUAGAGGAAGUCGACCUCGAGAGCCUCCUCGAAUUCUUCCCCGGGAAGCUUGGAUCCAAACCAGCUC [QQR site DNA-RNA hybrid]”, the Kd [1] is given as 2.8 nM, the Kd [2] is given as 3 nM and the activity [3] is given as 1%.

In the case of GGGGCGGGG [Sp1C site DNA-RNA hybrid], the Kd [4] is listed as 40 nM.
